One block for each binder: values may come before it.
Biological target: Leukocyte Function Antigen-1 (LFA-1), on cells (Jurkat T cells, human T cells, PBMC) (human) (UniProt P20701)
Assay: cell-based or functional assay

Chain of Leukocyte Function Antigen-1 (LFA-1), on cells (Jurkat T cells, human T cells, PBMC) (human) (P20701 26-1170, chain 1 of 2): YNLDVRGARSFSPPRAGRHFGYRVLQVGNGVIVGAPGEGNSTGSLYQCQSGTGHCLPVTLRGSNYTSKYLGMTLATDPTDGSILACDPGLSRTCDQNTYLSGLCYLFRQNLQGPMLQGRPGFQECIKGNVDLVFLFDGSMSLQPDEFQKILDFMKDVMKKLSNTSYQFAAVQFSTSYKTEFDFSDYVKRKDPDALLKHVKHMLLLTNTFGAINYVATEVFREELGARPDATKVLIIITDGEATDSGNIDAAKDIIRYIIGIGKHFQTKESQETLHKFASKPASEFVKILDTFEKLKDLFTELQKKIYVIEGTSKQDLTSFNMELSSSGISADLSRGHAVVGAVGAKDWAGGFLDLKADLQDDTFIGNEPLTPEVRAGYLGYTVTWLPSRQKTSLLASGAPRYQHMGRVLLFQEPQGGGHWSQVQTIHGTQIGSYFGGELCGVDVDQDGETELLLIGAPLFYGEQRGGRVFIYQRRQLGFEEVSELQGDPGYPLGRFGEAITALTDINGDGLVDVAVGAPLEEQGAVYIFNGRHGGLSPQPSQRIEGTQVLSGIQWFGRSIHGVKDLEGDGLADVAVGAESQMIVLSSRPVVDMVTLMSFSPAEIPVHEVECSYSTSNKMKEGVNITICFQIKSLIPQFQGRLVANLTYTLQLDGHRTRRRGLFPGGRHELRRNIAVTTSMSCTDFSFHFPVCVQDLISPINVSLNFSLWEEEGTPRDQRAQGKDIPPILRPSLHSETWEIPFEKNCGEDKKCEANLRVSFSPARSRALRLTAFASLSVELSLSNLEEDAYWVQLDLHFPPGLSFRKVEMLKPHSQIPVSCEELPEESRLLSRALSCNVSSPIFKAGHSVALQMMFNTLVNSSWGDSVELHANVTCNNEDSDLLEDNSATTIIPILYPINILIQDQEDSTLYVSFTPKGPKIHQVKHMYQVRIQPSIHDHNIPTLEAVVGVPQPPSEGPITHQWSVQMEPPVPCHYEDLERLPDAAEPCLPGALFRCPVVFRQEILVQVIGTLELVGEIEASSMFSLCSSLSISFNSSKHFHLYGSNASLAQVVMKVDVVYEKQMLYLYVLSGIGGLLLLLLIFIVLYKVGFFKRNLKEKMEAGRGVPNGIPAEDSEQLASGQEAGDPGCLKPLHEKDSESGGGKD
Chain of Leukocyte Function Antigen-1 (LFA-1), on cells (Jurkat T cells, human T cells, PBMC) (human) (P05107 23-769, chain 2 of 2, further chain): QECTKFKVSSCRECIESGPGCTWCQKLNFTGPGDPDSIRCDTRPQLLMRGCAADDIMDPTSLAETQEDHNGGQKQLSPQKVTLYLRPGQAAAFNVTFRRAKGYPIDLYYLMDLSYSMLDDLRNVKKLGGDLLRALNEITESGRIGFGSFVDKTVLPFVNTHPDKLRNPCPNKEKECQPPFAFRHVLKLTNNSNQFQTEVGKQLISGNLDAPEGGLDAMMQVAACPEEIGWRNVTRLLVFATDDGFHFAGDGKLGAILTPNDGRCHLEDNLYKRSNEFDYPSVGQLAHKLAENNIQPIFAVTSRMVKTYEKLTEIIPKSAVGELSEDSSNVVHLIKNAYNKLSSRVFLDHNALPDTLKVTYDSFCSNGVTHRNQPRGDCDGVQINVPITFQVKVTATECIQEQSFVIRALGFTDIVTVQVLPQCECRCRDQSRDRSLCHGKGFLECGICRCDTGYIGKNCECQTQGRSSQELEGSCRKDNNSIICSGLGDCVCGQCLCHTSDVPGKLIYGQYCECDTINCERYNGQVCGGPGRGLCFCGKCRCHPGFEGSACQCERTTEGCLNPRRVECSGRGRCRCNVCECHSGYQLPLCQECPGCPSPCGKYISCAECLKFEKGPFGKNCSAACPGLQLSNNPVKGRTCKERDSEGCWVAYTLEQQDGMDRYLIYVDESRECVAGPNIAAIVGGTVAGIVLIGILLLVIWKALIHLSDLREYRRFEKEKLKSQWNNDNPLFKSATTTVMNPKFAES

frequency of the perforin negative population, CD56+CD8med cells: 19.8%
granzyme-A negative population, CD56+CD8high cells: 3.07%
B1: recombinant human ICAM3-FC (Fc fusion, UniProt P32942 30-485, looked up, not shown: a dimerising Fc or GST)
chain: QEFLLRVEPQNPVLSAGGSLFVNCSTDCPSSEKIALETSLSKELVASGMGWAAFNLSNVTGNSRILCSVYCNGSQITGSSNITVYRLPERVELAPLPPWQPVGQNFTLRCQVEDGSPRTSLTVVLLRWEEELSRQPAVEEPAEVTATVLASRDDHGAPFSCRTELDMQPQGLGLFVNTSAPRQLRTFVLPVTPPRLVAPRFLEVETSWPVDCTLDGLFPASEAQVYLALGDQMLNATVMNHGDTLTATATATARADQEGAREIVCNVTLGGERREARENLTVFSFLGPIVNLSEPTAHEGSTVTVSCMAGARVQVTLDGVPAAAPGQPAQLQLNATESDDGRSFFCSATLEVDGEFLHRNSSVQLRVLYGPKIDRATCPQHLKWKDKTRHVLQCQARGNPYPELRCLKEGSSREVPVGIPFFVNVTHNGTYQCQASSSRGKYTLVVVMDIEAGSSH

frequency of the perforin negative population, CD56+CD8med cells: 21.5%
granzyme-A negative population, CD56+CD8high cells: 58.3%
B2: recombinant human ICAM2-FC (Fc fusion, UniProt P13598 25-223, looked up, not shown: a dimerising Fc or GST)
chain: KVFEVHVRPKKLAVEPKGSLEVNCSTTCNQPEVGGLETSLDKILLDEQAQWKHYLVSNISHDTVLQCHFTCSGKQESMNSNVSVYQPPRQVILTLQPTLVAVGKSFTIECRVPTVEPLDSLTLFLFRGNETLHYETFGKAAPAPQEATATFNSTADREDGHRNFSCLAVLDLMSRGGNIFHKHSAPKMLEIYEPVSDSQ

Source: patent publication US20150241442A1
